US20230250154A1 (CYTONICS, published 2023)
Values belong to the binder of their own block, whether it stands above or below them.

Key:
Experiment in all cases: cell-based or functional assay
[1] = molecular target: T1, ADAMTS4 (human, UniProt O75173 213-685, limits assumed)
T1 sequence (looked up): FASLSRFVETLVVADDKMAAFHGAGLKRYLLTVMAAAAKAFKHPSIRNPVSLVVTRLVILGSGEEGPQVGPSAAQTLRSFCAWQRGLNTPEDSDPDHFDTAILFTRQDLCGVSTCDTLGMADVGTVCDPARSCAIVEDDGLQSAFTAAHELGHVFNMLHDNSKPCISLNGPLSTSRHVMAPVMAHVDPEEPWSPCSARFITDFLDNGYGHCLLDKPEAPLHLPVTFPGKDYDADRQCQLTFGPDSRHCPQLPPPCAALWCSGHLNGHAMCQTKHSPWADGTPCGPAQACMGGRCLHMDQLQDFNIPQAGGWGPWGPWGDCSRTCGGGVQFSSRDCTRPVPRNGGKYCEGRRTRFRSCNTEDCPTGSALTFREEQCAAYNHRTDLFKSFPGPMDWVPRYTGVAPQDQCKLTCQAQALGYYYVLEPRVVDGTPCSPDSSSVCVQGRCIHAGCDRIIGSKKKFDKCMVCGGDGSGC

[2] = molecular target: T2, ADAMTS5 (human, UniProt Q9UNA0 262-622, limits assumed)
T2 sequence (looked up): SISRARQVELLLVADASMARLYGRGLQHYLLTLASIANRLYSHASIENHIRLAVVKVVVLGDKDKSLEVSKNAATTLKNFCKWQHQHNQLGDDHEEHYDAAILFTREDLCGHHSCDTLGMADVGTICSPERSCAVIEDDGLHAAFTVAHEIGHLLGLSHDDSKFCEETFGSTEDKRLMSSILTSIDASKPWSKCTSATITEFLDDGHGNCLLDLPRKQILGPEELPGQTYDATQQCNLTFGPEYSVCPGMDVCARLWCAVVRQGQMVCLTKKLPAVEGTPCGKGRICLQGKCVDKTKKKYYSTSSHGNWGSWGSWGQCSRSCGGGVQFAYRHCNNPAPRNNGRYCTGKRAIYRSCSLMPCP

[3] = molecular target: MMP13 (human, UniProt P45452 104-471, limits assumed)

Protease Inhibition (% of WT) [1]: 101 % of WT
Protease Inhibition (% of WT) [2]: 208 % of WT
Protease Inhibition (% of WT) [3]: 51 % of WT
B1: Variant A2M, bait region SEQ ID NO 110 (other)
chain: SVSGKPQYMVLVPSLLHTETTEKGCVLLSYLNETVTVSASLESVRGNRSLFTDLEAENDVLHCVAFAVPKSSSNEEVMFLTVQVKGPTQEFKKRTTVMVKNEDSLVFVQTDKSIYKPGQTVKFRVVSMDENFHPLNELIPLVYIQDPKGNRIAQWQSFQLEGGLKQFSFPLSSEPFQGSYKVVVQKKSGGRTEHPFTVEEFVLPKFEVQVTVPKIITILEEEMNVSVCGLYTYGKPVPGHVTVSICRKYSDASDCHGEDSQAFCEKFSGQLNSHGCFYQQVKTKVFQLKRKEYEMKLHTEAQIQEEGTVVELTGRQSSEITRTITKLSFVKVDSHFRQGIPFFGQVRLVDGKGVPIPNKVIFIRGNEANYYSNATTDEHGLVQFSINTTNVMGTSLTVRVNYKDRSPCYGYQWVSEEHEEAHHTAYLVFSPSKSFVHLEPMSHELPCGHTQTVQAHYILNGGTLLGLKKLSFYYLIMAKGGIVRTGTHGLLVKQEDMKGHFSISIPVKSDIAPVARLLIYAVLPTGDVIGDSAKYDVENCLANKVDLSFSPSQSLPASHAHLRVTAAPQSVCALRAVDQSVLLMKPDAELSASSVYNLLPEKDLTGFPGPLNDQDDEDCINRHNVYINGITYTPVSSTNEKDMYSFLEDMGLKAFTNSKIRKPKMCPQLETEGRGEREAQGEFPEVEGEEEGGGPEKETGGEREAQGKLRKYFPETWIWDLVVVNSAGVAEVGVTVPDTITEWKAGAFCLSEDAGLGISSTASLRAFQPFFVELTMPYSVIRGEAFTLKATVLNYLPKCIRVSVQLEASPAFLAVPVEKEQAPHCICANGRQTVSWAVTPKSLGNVNFTVSAEALESQELCGTEVPSVPEHGRKDTVIKPLLVEPEGLEKETTFNSLLCPSGGEVSEELSLKLPPNVVEESARASVSVLGDILGSAMQNTQNLLQMPYGCGEQNMVLFAPNIYVLDYLNETQQLTPEIKSKAIGYLNTGYQRQLNYKHYDGSYSTFGERYGRNQGNTWLTAFVLKTFAQARAYIFIDEAHITQALIWLSQRQKDNGCFRSSGSLLNNAIKGGVEDEVTLSAYITIALLEIPLTVTHPVVRNALFCLESAWKTAQEGDHGSHVYTKALLAYAFALAGNQDKRKEVLKSLNEEAVKKDNSVHWERPQKPKAPVGHFYEPQAPSAEVEMTSYVLLAYLTAQPAPTSEDLTSATNIVKWITKQQNAQGGFSSTQDTVVALHALSKYGAATFTRTGKAAQVTIQSSGTFSSKFQVDNNNRLLLQQVSLPELPGEYSMKVTGEGCVYLQTSLKYNILPEKEEFPFALGVQTLPQTCDEPKAHTSFQISLSVSYTGSRSASNMAIVDVKMVSGFIPLKPTVKMLERSNHVSRTEVSSNHVLIYLDKVSNQTLSLFFTVLQDVPVRDLKPAIVKVYDYYETDEFAIAEYNAPCSKDLGNADYKDDDDKGASHHHHHH

Protease Inhibition (% of WT) [1]: 112 % of WT
Protease Inhibition (% of WT) [2]: 105 % of WT
Protease Inhibition (% of WT) [3]: 122 % of WT
B2: Variant A2M, bait region SEQ ID NO 109 (other)
chain: SVSGKPQYMVLVPSLLHTETTEKGCVLLSYLNETVTVSASLESVRGNRSLFTDLEAENDVLHCVAFAVPKSSSNEEVMFLTVQVKGPTQEFKKRTTVMVKNEDSLVFVQTDKSIYKPGQTVKFRVVSMDENFHPLNELIPLVYIQDPKGNRIAQWQSFQLEGGLKQFSFPLSSEPFQGSYKVVVQKKSGGRTEHPFTVEEFVLPKFEVQVTVPKIITILEEEMNVSVCGLYTYGKPVPGHVTVSICRKYSDASDCHGEDSQAFCEKFSGQLNSHGCFYQQVKTKVFQLKRKEYEMKLHTEAQIQEEGTVVELTGRQSSEITRTITKLSFVKVDSHFRQGIPFFGQVRLVDGKGVPIPNKVIFIRGNEANYYSNATTDEHGLVQFSINTTNVMGTSLTVRVNYKDRSPCYGYQWVSEEHEEAHHTAYLVFSPSKSFVHLEPMSHELPCGHTQTVQAHYILNGGTLLGLKKLSFYYLIMAKGGIVRTGTHGLLVKQEDMKGHFSISIPVKSDIAPVARLLIYAVLPTGDVIGDSAKYDVENCLANKVDLSFSPSQSLPASHAHLRVTAAPQSVCALRAVDQSVLLMKPDAELSASSVYNLLPEKDLTGFPGPLNDQDDEDCINRHNVYINGITYTPVSSTNEKDMYSFLEDMGLKAFTNSKIRKPKMCPQLEPAGAARGESESEGGFFGFPIGERESTGGDRGLPIGENEAGGKLRKYFPETWIWDLVVVNSAGVAEVGVTVPDTITEWKAGAFCLSEDAGLGISSTASLRAFQPFFVELTMPYSVIRGEAFTLKATVLNYLPKCIRVSVQLEASPAFLAVPVEKEQAPHCICANGRQTVSWAVTPKSLGNVNFTVSAEALESQELCGTEVPSVPEHGRKDTVIKPLLVEPEGLEKETTFNSLLCPSGGEVSEELSLKLPPNVVEESARASVSVLGDILGSAMQNTQNLLQMPYGCGEQNMVLFAPNIYVLDYLNETQQLTPEIKSKAIGYLNTGYQRQLNYKHYDGSYSTFGERYGRNQGNTWLTAFVLKTFAQARAYIFIDEAHITQALIWLSQRQKDNGCFRSSGSLLNNAIKGGVEDEVTLSAYITIALLEIPLTVTHPVVRNALFCLESAWKTAQEGDHGSHVYTKALLAYAFALAGNQDKRKEVLKSLNEEAVKKDNSVHWERPQKPKAPVGHFYEPQAPSAEVEMTSYVLLAYLTAQPAPTSEDLTSATNIVKWITKQQNAQGGFSSTQDTVVALHALSKYGAATFTRTGKAAQVTIQSSGTFSSKFQVDNNNRLLLQQVSLPELPGEYSMKVTGEGCVYLQTSLKYNILPEKEEFPFALGVQTLPQTCDEPKAHTSFQISLSVSYTGSRSASNMAIVDVKMVSGFIPLKPTVKMLERSNHVSRTEVSSNHVLIYLDKVSNQTLSLFFTVLQDVPVRDLKPAIVKVYDYYETDEFAIAEYNAPCSKDLGNADYKDDDDKGASHHHHHH

Protease Inhibition (% of WT) [1]: 92 % of WT
Protease Inhibition (% of WT) [2]: 108 % of WT
Protease Inhibition (% of WT) [3]: 136 % of WT
B3: Variant A2M, bait region SEQ ID NO 107 (other)
chain: SVSGKPQYMVLVPSLLHTETTEKGCVLLSYLNETVTVSASLESVRGNRSLFTDLEAENDVLHCVAFAVPKSSSNEEVMFLTVQVKGPTQEFKKRTTVMVKNEDSLVFVQTDKSIYKPGQTVKFRVVSMDENFHPLNELIPLVYIQDPKGNRIAQWQSFQLEGGLKQFSFPLSSEPFQGSYKVVVQKKSGGRTEHPFTVEEFVLPKFEVQVTVPKIITILEEEMNVSVCGLYTYGKPVPGHVTVSICRKYSDASDCHGEDSQAFCEKFSGQLNSHGCFYQQVKTKVFQLKRKEYEMKLHTEAQIQEEGTVVELTGRQSSEITRTITKLSFVKVDSHFRQGIPFFGQVRLVDGKGVPIPNKVIFIRGNEANYYSNATTDEHGLVQFSINTTNVMGTSLTVRVNYKDRSPCYGYQWVSEEHEEAHHTAYLVFSPSKSFVHLEPMSHELPCGHTQTVQAHYILNGGTLLGLKKLSFYYLIMAKGGIVRTGTHGLLVKQEDMKGHFSISIPVKSDIAPVARLLIYAVLPTGDVIGDSAKYDVENCLANKVDLSFSPSQSLPASHAHLRVTAAPQSVCALRAVDQSVLLMKPDAELSASSVYNLLPEKDLTGFPGPLNDQDDEDCINRHNVYINGITYTPVSSTNEKDMYSFLEDMGLKAFTNSKIRKPKMCPQLEQYEMHGPEGLRVGIPENFFGVTSEDLVVQEAIPMSIPKLRKYFPETWIWDLVVVNSAGVAEVGVTVPDTITEWKAGAFCLSEDAGLGISSTASLRAFQPFFVELTMPYSVIRGEAFTLKATVLNYLPKCIRVSVQLEASPAFLAVPVEKEQAPHCICANGRQTVSWAVTPKSLGNVNFTVSAEALESQELCGTEVPSVPEHGRKDTVIKPLLVEPEGLEKETTFNSLLCPSGGEVSEELSLKLPPNVVEESARASVSVLGDILGSAMQNTQNLLQMPYGCGEQNMVLFAPNIYVLDYLNETQQLTPEIKSKAIGYLNTGYQRQLNYKHYDGSYSTFGERYGRNQGNTWLTAFVLKTFAQARAYIFIDEAHITQALIWLSQRQKDNGCFRSSGSLLNNAIKGGVEDEVTLSAYITIALLEIPLTVTHPVVRNALFCLESAWKTAQEGDHGSHVYTKALLAYAFALAGNQDKRKEVLKSLNEEAVKKDNSVHWERPQKPKAPVGHFYEPQAPSAEVEMTSYVLLAYLTAQPAPTSEDLTSATNIVKWITKQQNAQGGFSSTQDTVVALHALSKYGAATFTRTGKAAQVTIQSSGTFSSKFQVDNNNRLLLQQVSLPELPGEYSMKVTGEGCVYLQTSLKYNILPEKEEFPFALGVQTLPQTCDEPKAHTSFQISLSVSYTGSRSASNMAIVDVKMVSGFIPLKPTVKMLERSNHVSRTEVSSNHVLIYLDKVSNQTLSLFFTVLQDVPVRDLKPAIVKVYDYYETDEFAIAEYNAPCSKDLGNADYKDDDDKGASHHHHHH
